One data set has as its target HCoV-229E spike protein (Human coronavirus 229E, UniProt P15423 P15423:16-1115).
A further data set has as its target HCoV-NL63 spike protein (Human coronavirus NL63, UniProt Q6Q1S2 Q6Q1S2:19-1296).
The next data set deals with SARS-CoV-2 spike protein (SARS-CoV-2, UniProt P0DTC2 P0DTC2:14-1213). Briefly: cell-based or functional assay.

Sequence of HCoV-229E spike protein (P15423 16-1115, one chain of several): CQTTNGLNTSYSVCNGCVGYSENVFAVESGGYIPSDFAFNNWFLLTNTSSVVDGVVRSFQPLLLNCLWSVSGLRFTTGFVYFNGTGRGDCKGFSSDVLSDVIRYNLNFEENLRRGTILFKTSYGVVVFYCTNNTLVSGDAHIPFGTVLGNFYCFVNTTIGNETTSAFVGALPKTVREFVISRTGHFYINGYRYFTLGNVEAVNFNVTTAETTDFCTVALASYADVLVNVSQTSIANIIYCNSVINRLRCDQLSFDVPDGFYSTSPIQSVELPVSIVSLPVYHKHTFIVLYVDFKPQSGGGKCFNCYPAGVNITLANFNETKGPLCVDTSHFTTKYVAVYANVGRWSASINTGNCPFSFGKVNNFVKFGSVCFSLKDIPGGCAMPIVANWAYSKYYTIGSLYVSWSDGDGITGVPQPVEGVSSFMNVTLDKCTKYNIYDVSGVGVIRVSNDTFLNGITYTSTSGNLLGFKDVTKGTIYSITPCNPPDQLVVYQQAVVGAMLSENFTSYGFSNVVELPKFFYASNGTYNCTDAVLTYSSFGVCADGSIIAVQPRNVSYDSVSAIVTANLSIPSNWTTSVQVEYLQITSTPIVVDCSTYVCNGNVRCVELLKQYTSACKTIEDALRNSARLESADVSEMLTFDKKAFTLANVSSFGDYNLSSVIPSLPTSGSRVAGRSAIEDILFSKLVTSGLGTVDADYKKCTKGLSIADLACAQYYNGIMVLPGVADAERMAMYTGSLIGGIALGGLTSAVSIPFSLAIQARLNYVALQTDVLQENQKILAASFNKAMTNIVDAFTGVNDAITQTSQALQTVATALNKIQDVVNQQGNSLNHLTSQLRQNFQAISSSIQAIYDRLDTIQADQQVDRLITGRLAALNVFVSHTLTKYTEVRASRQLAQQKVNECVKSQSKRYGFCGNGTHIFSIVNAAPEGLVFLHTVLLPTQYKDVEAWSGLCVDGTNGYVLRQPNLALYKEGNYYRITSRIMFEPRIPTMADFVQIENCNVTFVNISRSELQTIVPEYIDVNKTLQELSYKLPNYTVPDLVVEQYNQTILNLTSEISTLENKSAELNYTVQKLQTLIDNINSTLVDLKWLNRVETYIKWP
Sequence of HCoV-NL63 spike protein (Q6Q1S2 19-1296, one chain of several): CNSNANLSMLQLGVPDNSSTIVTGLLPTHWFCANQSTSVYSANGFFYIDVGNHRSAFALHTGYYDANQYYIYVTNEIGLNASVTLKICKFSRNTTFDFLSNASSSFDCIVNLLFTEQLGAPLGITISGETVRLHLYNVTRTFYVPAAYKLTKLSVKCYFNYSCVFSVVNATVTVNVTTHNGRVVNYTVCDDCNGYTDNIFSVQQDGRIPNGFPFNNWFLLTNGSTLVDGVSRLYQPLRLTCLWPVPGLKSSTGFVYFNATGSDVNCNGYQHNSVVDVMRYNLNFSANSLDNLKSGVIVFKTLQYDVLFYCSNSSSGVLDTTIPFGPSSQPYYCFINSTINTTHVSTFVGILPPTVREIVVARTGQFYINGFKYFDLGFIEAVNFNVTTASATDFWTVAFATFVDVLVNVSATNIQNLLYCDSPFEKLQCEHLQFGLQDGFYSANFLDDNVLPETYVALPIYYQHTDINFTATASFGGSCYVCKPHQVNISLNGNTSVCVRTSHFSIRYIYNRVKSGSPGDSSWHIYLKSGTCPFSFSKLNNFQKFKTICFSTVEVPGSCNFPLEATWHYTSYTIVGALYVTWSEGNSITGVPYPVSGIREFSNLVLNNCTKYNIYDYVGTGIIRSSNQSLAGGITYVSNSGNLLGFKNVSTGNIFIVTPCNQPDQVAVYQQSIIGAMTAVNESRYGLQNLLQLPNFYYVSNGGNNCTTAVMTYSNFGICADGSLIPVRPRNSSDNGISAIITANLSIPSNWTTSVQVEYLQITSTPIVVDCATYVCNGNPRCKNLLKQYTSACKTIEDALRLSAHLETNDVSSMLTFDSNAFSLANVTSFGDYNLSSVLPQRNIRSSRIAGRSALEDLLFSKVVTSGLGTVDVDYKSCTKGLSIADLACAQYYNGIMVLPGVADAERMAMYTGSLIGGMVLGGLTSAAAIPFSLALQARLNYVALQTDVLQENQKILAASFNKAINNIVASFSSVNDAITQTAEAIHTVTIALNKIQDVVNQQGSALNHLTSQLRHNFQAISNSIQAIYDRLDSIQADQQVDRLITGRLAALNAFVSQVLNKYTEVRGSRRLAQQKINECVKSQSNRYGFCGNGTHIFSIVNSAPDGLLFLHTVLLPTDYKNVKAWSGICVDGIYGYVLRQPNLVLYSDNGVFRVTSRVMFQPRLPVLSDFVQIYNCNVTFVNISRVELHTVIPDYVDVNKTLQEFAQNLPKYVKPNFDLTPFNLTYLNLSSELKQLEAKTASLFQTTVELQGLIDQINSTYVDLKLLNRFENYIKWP

B1: DNA aptamer 7 (ssDNA)
DNA: CAGCACCGACCTTGTGCTTTGGGAGTGCTGGTCCAAGGGCGTTAATGGACA
Turning to B1, the binding result with HCoV-229E spike protein and with HCoV-NL63 spike protein was “no binding” throughout.

B2: DNA aptamer 4 (ssDNA)
DNA: ATCCAGAGTGACGCAGCATTTCATCGGGTCCAAAAGGGGCTGCTCGGGATTGCGGATATGGACACGGTGGCTTAGT
As to B2, the activity in the data set with SARS-CoV-2 spike protein turned out to be 9 nM.

B3: DNA aptamer 3 (ssDNA)
DNA: ATCCAGAGTGACGCAGCACTGCGTAGGCGCGGCCAATGTGTAGGATTGCTCAGGTCTGCTGGACACGGTGGCTTAGT
With B3, the activity with SARS-CoV-2 spike protein was 10 nM.

B4: DNA aptamer 2 (ssDNA)
DNA: ATCCAGAGTGACGCAGCATCGAGTGGTGGGCTGGTCGGGTTTGGATTCCCTTAGATGCTGGACACGGTGGCTTAGT
In turn, B4 had an activity with SARS-CoV-2 spike protein of 8 nM.

B5: DNA aptamer 8 (ssDNA)
DNA: ATCCAGAGTGACGCAGCATTTCATCGGGTCCAAAAGGGGCTGCTCGGGATTGCGGATATGGACACGT
In turn, B5 displayed an activity with SARS-CoV-2 spike protein of 8.9 nM.

B6: DNA aptamer 6 (ssDNA)
DNA: ATCCAGAGTGACGCAGCAGTAGGGGGATTGGCTCCAGGGCCTGGCTGACGGTTGCACGTGGACACGGTGGCTTAGT
B6 came in with an activity with SARS-CoV-2 spike protein of 7.8 nM.

B7: DNA aptamer 5 (ssDNA)
DNA: ATCCAGAGTGACGCAGCAGGACTGCTTAGGATTGCGAAGCTGAGGAGCTCCCCCGCCTTGGACACGGTGGCTTAGT
Take B7: the activity with SARS-CoV-2 spike protein is 9.7 nM.

For the origin of these results see patent US20240353401, “Compositions and methods for detecting SARS-CoV-2 spike protein” (UNICORNFISH PTY LTD AS TRUSTEE FOR RCX UNIT TRUST, published 2024).
